The target of assay [1] is murine VEGF (mouse) (UniProt Q00731). Description: 25C; given as unpublished results.
Assay [2] shares this target. Description: BIAcore or solution binding ELISA, Fab, measured as control in the same assays. For orientation: Surface plasmon resonance follows binding to a sensor surface in real time, without labels.
Assay [3] deals with T1, human placenta growth factor (PlGF-2) (human, UniProt P49763-3 19-170, limits assumed).
T1 construct: also called human P1GF-2
T1 sequence (looked up): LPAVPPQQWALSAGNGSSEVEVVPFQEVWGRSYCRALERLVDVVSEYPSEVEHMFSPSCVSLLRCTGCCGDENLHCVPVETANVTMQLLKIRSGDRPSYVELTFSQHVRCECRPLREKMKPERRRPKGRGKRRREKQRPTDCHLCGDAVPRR
Description: direct ELISA on homolog-coated wells (2ug/ml), increasing G6 Fab. (In general: ELISA stands for enzyme-linked immunosorbent assay.)

Assay [4] deals with T2, mouse placenta growth factor (PlGF-2) (mouse, UniProt P49764 24-158, limits assumed).
T2 construct: also called murine P1GF-2
T2 sequence (looked up): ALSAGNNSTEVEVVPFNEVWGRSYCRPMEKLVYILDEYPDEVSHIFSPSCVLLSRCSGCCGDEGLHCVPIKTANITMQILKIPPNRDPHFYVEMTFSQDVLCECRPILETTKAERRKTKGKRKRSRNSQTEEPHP
The assay is described as above.

In assay [5] the target is T3, murine VEGF-D (mouse, UniProt P97946 98-206, limits assumed).
T3 construct: also called mVEGF-D
T3 sequence (looked up): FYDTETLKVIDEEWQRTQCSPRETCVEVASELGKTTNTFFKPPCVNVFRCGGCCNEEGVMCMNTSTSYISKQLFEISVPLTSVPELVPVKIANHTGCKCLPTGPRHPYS
The assay is described as above.

Assay [6] concerns the target T4, human VEGF-B (human, UniProt P49765-2 22-188, limits assumed).
T4 sequence (looked up): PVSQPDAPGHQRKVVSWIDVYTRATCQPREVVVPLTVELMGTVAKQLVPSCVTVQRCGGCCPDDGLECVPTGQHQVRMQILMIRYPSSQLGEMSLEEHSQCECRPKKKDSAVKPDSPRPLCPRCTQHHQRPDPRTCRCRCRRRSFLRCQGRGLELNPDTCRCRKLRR
The description is as above.

These results are taken from patent WO2005044853A2 (dated 2005).

As usually defined, the Kd is the concentration at which binding is half-saturated. Lower therefore signals tighter binding.

murine VEGF (mouse), sequence (Q00731 other isoform, or with tags, fused parts or gaps limits assumed): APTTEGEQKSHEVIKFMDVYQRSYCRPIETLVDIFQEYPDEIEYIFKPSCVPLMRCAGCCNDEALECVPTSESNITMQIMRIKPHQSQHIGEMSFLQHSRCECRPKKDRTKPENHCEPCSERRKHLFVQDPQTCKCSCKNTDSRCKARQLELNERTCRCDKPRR

Y0317 Fab had a Kd in assay [1] of 300 nM. In assay [2], this molecule displayed an affinity of 350 nM.

B1: G6 Fab (Fab, V domains shown)
VH: EVQLVESGGGLVQPGGSLRLSCAASGFTISDYWIHWVRQAPGKGLEWVAGITPAGGYTYYADSVKGRFTISADTSKNTAYLQMNSLRAEDTAVYYCARFVFFLPYAMDYWGQGTLVTVSS
VL: DIQMTQSPSSLSASVGDRVTITCRASQDVSTAVAWYQQKPGKAPKLLIYSASFLYSGVPSRFSGSGSGTDFTLTISSLQPEDFATYYCQQSYTTPPTFGQGTKVEIKR
notes: also called G6 antibody; G6 clone
With B1, the binding result in assay [3], in assay [4], in assay [5] and in assay [6] was “no binding” in each case.
